These results are taken from US20260193377A1 (FULL LIFE TECHNOLOGIES HK, published 2026).

Where a chain is given by its changes, count along the chain named.

The term Kd denotes the constant that tells how readily two partners part at equilibrium. A low value points to higher affinity. As a reminder, the koff is the first-order rate constant of dissociation. Higher therefore signals a short-lived complex. A word on the kon: it is the rate constant with which the complex forms. Read a low kon as slower complex formation.

First the molecules themselves.
B1: anti-GCC single domain antibody SEQ ID NO. 7 (VHH)
VHH: QVQLVESGGGLVQPGGSLRLSCAASGSRFMTSSMGWYRQTPGKQREWVATATSSDSTLYADAVKGRFTISRDNAKNTVYLQMNSLKPQDTAVYYCFTTPPTFWGHGTQVTVSS
notes: Alpaca-derived sdAb
B2: anti-GCC single domain antibody SEQ ID NO. 1 (VHH)
VHH: QVQLVESGGGLVQAGGSLRLSCTGSARPFSNYGMGWFRQAPGKEREFVAAISGGGVYTDFADAVKGRFTISRDNAKNTVYLQMNSLKPEDTAVYYCARARTARVVSRRHEYDYWGQGTQVTVSS
notes: Alpaca-derived sdAb
B3: anti-GCC single domain antibody SEQ ID NO. 2 (VHH)
VHH: B2 VHH with G24A, A26G, R27G, P28T, S30V, T58R, A63S, V93L, A102P, S106N
notes: Alpaca-derived sdAb
B4: anti-GCC single domain antibody SEQ ID NO. 3 (VHH)
VHH: B2 VHH with L4F, G24A, A26G, R27G, P28I, A63S, N74R, V104L, V105T, E110D
notes: Alpaca-derived sdAb
B5: anti-GCC single domain antibody SEQ ID NO. 6 (VHH)
VHH: QVQVVESGGGLVQAGGSLRLSCAASGRAFSSYAMGWFRQAPGKQRELVAVITSGGSTNYADSVKGRFTISRDNAKNTVYLQMNSLKPEDTAVYYCAAGTGYGGGFLIGYDYWGQGTQVTVSS
notes: Alpaca-derived sdAb
B6: anti-GCC single domain antibody SEQ ID NO. 10 (VHH)
VHH: AVQLVESGGGMVQPGGSLRLSCAASGFTFGAYDMTWVRQAPGKGAEWVSAINSGGDRTYYTDSVKGRFTISRDNAKNTLYLQMNSLKPADTAKYYCGTKIPQFLRGQGTQVTVSS
notes: Alpaca-derived sdAb
B7: anti-GCC single domain antibody SEQ ID NO. 4 (VHH)
VHH: QSQLVESGGGLVQPGGSLRLSCAASGSTLDHYATAWFRRAPGKEREGISYISSGGGSTYYVDSVKGRFTISRDNAKRTVYLQMNSLKPEDTAVYFCASKRRFNTGWSEPSDYNVWGQGTQVTVTS
notes: Alpaca-derived sdAb
B8: anti-GCC single domain antibody SEQ ID NO. 5 (VHH)
VHH: AVQLVESGGGLVQPGGSLRLSCAASGSTISINVMGWYRQAPGKQRDLVAAISSVGSTYYADSVKGRFTISRDNAKNTVYLQMNSLKPEDTAVYYCNAKSLISDYWGQGTQVTVSS
notes: Alpaca-derived sdAb
B9: humanized anti-GCC single domain antibody SEQ ID NO. 109 (VHH)
VHH: B1 VHH with Q1E, K43N, A62S, T77S, V78L, K86R, P87A, Q88E
notes: 7
B10: humanized anti-GCC single domain antibody SEQ ID NO. 108 (VHH)
VHH: B1 VHH with Q1E, A62S, K75R, T77S, V78L, K86R, P87A, Q88E
notes: 7
B11: humanized anti-GCC single domain antibody SEQ ID NO. 110 (VHH)
VHH: B1 VHH with Q1E, K43N, Q44G, A62S, T77S, V78L, K86R, P87A, Q88E
notes: 7
B12: humanized anti-GCC single domain antibody SEQ ID NO. 107 (VHH)
VHH: B1 VHH with Q1E, A62S, T77S, V78L, K86R, P87A, Q88E
notes: 7
B13: humanized anti-GCC single domain antibody SEQ ID NO. 86 (VHH)
VHH: B2 VHH with Q1E, A14P, K43N, A63S, A75S, V79L, K87R, P88A
notes: 1
B14: humanized anti-GCC single domain antibody SEQ ID NO. 97 (VHH)
VHH: B7 VHH with A75S, R77N, V79L, K87R, P88A
notes: 4
B15: humanized anti-GCC single domain antibody SEQ ID NO. 96 (VHH)
VHH: B7 VHH with V61A, A75S, R77N, V79L, K87R, P88A, F95Y
notes: 4
B16: humanized anti-GCC single domain antibody SEQ ID NO. 83 (VHH)
VHH: EVQLVESGGGLVQPGGSLRLSCAASARPFSNYGMGWFRQAPGKEREFVAAISGGGVYTYYADSVKGRFTISRDNSKNTLYLQMNSLRAEDTAVYYCARARTARVVSRRHEYDYWGQGTQVTVSS
notes: 1
B17: humanized anti-GCC single domain antibody SEQ ID NO. 88 (VHH)
VHH: B16 VHH with A26G, R27G, P28T, S30V, T58R, A102P, S106N
notes: 2
B18: humanized anti-GCC single domain antibody SEQ ID NO. 92 (VHH)
VHH: B16 VHH with A26G, R27G, P28I, V104L, V105T, E110D
notes: 3
B19: humanized anti-GCC single domain antibody SEQ ID NO. 94 (VHH)
VHH: B16 VHH with A26G, R27G, P28I, K76R, V104L, V105T, E110D
notes: 3
B20: humanized anti-GCC single domain antibody SEQ ID NO. 85 (VHH)
VHH: B16 VHH with K76R
notes: 1
B21: humanized anti-GCC single domain antibody SEQ ID NO. 112 (VHH)
VHH: EVQLVESGGGLVQPGGSLRLSCAASGFTFSHYAMSWVRQAPGKALEWVSDISSGGGITYYADSVKGRFTISRDNSKNTLYLQMNSLRAEDTAVYYCAKASAIGYLAYWMRNPVEYDTRGQGTLVTVSS
notes: 8
B22: humanized anti-GCC single domain antibody SEQ ID NO. 113 (VHH)
VHH: B21 VHH with A23G, Y59K
notes: 8
B23: humanized anti-GCC single domain antibody SEQ ID NO. 114 (VHH)
VHH: B21 VHH with E1Q, K65A, K76R
notes: 8
B24: humanized anti-GCC single domain antibody SEQ ID NO. 100 (VHH)
VHH: B8 VHH with A74S, V78L, K86R, P87A
notes: 5
B25: humanized anti-GCC single domain antibody SEQ ID NO. 101 (VHH)
VHH: B8 VHH with K64A, A74S, K75R, V78L, K86R, P87A
notes: 5
B26: humanized anti-GCC single domain antibody SEQ ID NO. 116 (VHH)
VHH: QVQLVESGGGLVKPGGSLRLSCAASGETLSNYNIGWFRQAPGKEREGVSCISQIGFTNYADSVKGRFTISRDNAKNSLYLQMNSLRAEDTAVYYCAVTGGRWASCSFLPLRQDFESWGQGTLVTVSS
notes: 9

T2 sequence (P25092 24-1073 limits assumed): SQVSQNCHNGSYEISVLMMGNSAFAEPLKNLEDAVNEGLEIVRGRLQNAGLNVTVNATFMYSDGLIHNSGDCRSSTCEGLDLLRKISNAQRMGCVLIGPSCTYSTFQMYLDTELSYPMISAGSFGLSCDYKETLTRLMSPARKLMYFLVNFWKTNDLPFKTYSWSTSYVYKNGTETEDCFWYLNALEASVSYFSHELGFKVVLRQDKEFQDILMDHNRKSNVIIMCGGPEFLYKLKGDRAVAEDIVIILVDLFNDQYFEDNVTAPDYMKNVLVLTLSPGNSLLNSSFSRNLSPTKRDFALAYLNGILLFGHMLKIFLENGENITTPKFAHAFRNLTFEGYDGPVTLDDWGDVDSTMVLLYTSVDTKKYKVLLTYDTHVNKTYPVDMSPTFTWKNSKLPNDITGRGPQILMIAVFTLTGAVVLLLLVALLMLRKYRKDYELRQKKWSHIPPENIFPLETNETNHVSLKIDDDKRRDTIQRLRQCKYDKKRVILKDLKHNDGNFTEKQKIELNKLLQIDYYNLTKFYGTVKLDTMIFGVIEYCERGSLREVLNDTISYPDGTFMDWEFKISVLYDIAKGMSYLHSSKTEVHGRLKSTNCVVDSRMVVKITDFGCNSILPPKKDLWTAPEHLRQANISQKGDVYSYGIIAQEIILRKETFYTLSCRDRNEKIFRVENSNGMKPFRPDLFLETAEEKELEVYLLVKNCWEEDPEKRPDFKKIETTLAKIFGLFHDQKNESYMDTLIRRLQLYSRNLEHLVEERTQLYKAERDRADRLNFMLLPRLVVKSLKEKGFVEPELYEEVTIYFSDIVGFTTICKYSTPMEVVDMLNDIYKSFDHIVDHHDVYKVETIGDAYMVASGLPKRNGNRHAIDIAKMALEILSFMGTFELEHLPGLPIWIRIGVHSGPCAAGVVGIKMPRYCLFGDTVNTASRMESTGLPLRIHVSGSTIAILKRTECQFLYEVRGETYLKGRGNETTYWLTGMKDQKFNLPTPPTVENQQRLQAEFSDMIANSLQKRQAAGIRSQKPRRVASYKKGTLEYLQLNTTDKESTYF
T1 sequence (P25092 24-430): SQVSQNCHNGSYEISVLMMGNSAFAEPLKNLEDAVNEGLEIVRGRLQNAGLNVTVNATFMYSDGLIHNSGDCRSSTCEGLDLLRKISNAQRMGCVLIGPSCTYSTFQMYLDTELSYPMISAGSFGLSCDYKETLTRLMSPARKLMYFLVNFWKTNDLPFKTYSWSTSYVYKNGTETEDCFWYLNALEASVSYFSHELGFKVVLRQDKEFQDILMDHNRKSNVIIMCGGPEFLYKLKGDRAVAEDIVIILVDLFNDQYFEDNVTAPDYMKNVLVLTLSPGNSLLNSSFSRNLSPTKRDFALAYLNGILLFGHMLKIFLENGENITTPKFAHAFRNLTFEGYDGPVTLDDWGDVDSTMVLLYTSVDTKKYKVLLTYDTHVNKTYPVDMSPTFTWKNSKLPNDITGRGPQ

One test has as its target T1, Human GUCY2C (captured on anti-human Fc capturing antibody, SPR) (human).
T1 construct: also called human GCC; guanylyl cyclase C
Nature of the test: SPR (Biacore T200), human GUCY2C captured via anti-human Fc, sdAb as analyte, 1:1 fit. The protocol: Anti-GCC sdAbs were diluted with 1×HBS-EP buffer. Human GUCY2C was captured on anti-human Fc capturing Ab-immobilized sCM5 chip. Then anti-GCC sdAb samples were injected with a flow rate of 10 μl/min for 180 sec, followed by dissociation for 800 sec. The binding curves were locally fitted with Biacore® T200 analysis software (BIAevaluation) using a 1:1 Langmuir binding model.
For orientation: SPR reads the build-up and loss of mass on a sensor chip optically.
B1 returned a Kd of 2530 pM, a koff of 0.000395 s⁻¹ and a kon of 156000 M⁻¹ s⁻¹.
Taken in the same sequence, the figures for B2 were 560 pM, 0.0002 s⁻¹ and 357000 M⁻¹ s⁻¹.
The molecule B3 displayed a dissociation constant Kd of 75.9 pM, a koff of 4.67e-05 s⁻¹ and a kon of 615000 M⁻¹ s⁻¹.
The corresponding values for B4 are 218 pM, 0.00018 s⁻¹ and 827000 M⁻¹ s⁻¹.
The corresponding values for B5 are 753 pM, 0.000172 s⁻¹ and 228000 M⁻¹ s⁻¹.
B6 registered a Kd of 427 pM, a koff of 0.000702 s⁻¹ and an on-rate constant (kon) of 1.64e+06 M⁻¹ s⁻¹.
B7: binding was put at a Kd of 414 pM, the koff was determined as 0.000149 s⁻¹ and the kon was determined as 359000 M⁻¹ s⁻¹.
Taken in the same sequence, the figures for B8 were 431 pM, 0.000142 s⁻¹ and 330000 M⁻¹ s⁻¹.

The next test concerns the target T2, GCC expressed on T84 cells (UniProt P25092 24-1073, limits assumed).
T2 construct: whole, on cells; also called guanylyl cyclase C; GUCY2C
Nature of the test: flow cytometry on T84 cells expressing GCC, 300 nm [sic], PE-anti human Fc secondary; Blank 30.7. As for the experimental part:
T84 cells expressing GCC were used to evaluate the binding affinity of the anti-GCC sdAbs. Briefly, 50 μL T84 cells at density of 3×10⁶ cells/mL were incubated with 50 μL anti-GCC sdAbs at 4° C. for 2 hours. After incubation, the cells were washed three times with 400 μL FACS buffer, resuspended with PE-anti human Fc 2nd antibody (eBioscience 12-4998-82, 1:1000 dilution) and incubated at 4° C. for 60 min. Then the cells were collected and subject to FACS analysis.
In general terms: Flow cytometry measures light scatter and fluorescence of single cells or particles in a stream.
On to B1, for which the “Geometric mean MFI” value was determined as 268.
B2: the “Geometric mean MFI” value was determined as 790.
Turning to B3, the “Geometric mean MFI” value stood at 721.
Still for that read-out and setting: for B4 the value was 910.
Still for that read-out and setting: for B5 the value was 298.
Still for that read-out and setting: for B8 the value was 371.

Another test addresses T1, Human GUCY2C (captured on anti-human Fc …). Briefly: SPR (Biacore T200), human GUCY2C captured via anti-human Fc, humanized sdAb as analyte, 1:1 fit. The protocol:
Exemplary humanized anti-GCC sdAbs of the present application were diluted with 1×HBS-EP buffer. Human GUCY2C was captured on anti-human Fc capturing Ab-immobilized sCM5 chip. Then the humanized anti-GCC sdAb samples were injected with a flow rate of 10 μl/min for 180 sec, followed by dissociation for 800 sec. The binding curves were locally fitted with Biacore® T200 analysis software (BIAevaluation) using a 1:1 Langmuir binding model.
With B9, the Kd was 11800 pM, the koff is 0.00213 s⁻¹ and the kon is 181000 M⁻¹ s⁻¹.
Taken in the same sequence, the figures for B10 were 2370 pM, 0.000546 s⁻¹ and 231000 M⁻¹ s⁻¹.
The corresponding values for B11 are 54600 pM, 0.01 s⁻¹ and 183000 M⁻¹ s⁻¹.
Consider B12, for which the affinity, expressed as Kd, was 2030 pM; the koff was 0.000531 s⁻¹; the kon came to 261000 M⁻¹ s⁻¹.
The corresponding values for B13 are 235 pM, 0.000181 s⁻¹ and 768000 M⁻¹ s⁻¹.
Regarding B14, the Kd worked out at 3680 pM, the koff came to 0.000226 s⁻¹ and the kon came to 61300 M⁻¹ s⁻¹.
The corresponding values for B15 are 1740 pM, 0.000143 s⁻¹ and 82600 M⁻¹ s⁻¹.
Taken in the same sequence, the figures for B16 were 115 pM, 0.000177 s⁻¹ and 1.53e+06 M⁻¹ s⁻¹.
The corresponding values for B17 are 155 pM, 0.000337 s⁻¹ and 2.17e+06 M⁻¹ s⁻¹.
As for B18, binding was put at a Kd of 759 pM, the koff was 0.000788 s⁻¹ and the kon worked out at 1.04e+06 M⁻¹ s⁻¹.
Taken in the same sequence, the figures for B19 were 425 pM, 0.000633 s⁻¹ and 1.49e+06 M⁻¹ s⁻¹.
The corresponding values for B20 are 187 pM, 0.000309 s⁻¹ and 1.66e+06 M⁻¹ s⁻¹.
Taken in the same sequence, the figures for B21 were 118000 pM, 0.00462 s⁻¹ and 39100 M⁻¹ s⁻¹.
Take B22: the affinity, expressed as Kd, was 1290 pM; the koff was 0.00277 s⁻¹; the kon came to 2.15e+06 M⁻¹ s⁻¹.
The corresponding values for B23 are 195000 pM, 0.0044 s⁻¹ and 22600 M⁻¹ s⁻¹.
The corresponding values for B24 are 324 pM, 0.000191 s⁻¹ and 591000 M⁻¹ s⁻¹.
Taken in the same sequence, the figures for B25 were 574 pM, 0.000218 s⁻¹ and 380000 M⁻¹ s⁻¹.
B26 returned a Kd of 15400 pM, a koff of 0.0636 s⁻¹ and a kon of 4.14e+06 M⁻¹ s⁻¹.
